T1: human FcγRIIa type R (human, UniProt P12318 36-217)
T1 construct: also called FcgRIIaR; FcγRIIa(R)
T1 chain: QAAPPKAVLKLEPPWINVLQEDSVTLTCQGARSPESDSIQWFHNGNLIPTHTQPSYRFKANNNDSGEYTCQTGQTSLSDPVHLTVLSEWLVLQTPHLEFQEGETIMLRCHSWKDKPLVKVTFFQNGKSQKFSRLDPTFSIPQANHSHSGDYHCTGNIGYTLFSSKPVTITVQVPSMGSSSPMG

T2: human FcγRIIb (human, UniProt P31994 43-217)
T2 construct: also called FcgRIIb; FcγIIB
T2 sequence: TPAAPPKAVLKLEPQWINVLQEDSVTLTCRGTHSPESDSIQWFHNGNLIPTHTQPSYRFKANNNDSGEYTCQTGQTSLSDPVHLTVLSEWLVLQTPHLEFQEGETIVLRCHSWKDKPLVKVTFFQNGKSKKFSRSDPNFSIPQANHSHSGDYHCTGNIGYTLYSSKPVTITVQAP

T3: human FcγRIIa type H (human, UniProt P12318 36-217)
T3 construct: also called FcgRIIaH; FcγRIIa(H)
T3 sequence: T1 chain with R133H

T4: human FcγRIIa type H (human, UniProt P12318 36-217)
T4 construct: also called FcgRIIaH; FcγRIIa(H)
T4 sequence: T1 chain with R133H

T5: human FcγRIIb (human, UniProt P31994 43-217, limits assumed)
T5 construct: also called FcgRIIb; FcγIIB
T5 sequence: T2 sequence

B1: IL6R-BP149/IL6R-L (antibody, human IgG1)
heavy: QVQLQESGPGLVKPSETLSLTCAVSGHSISHDHAWSWVRQPPGEGLEWIGFISYSGITNYNPSLQGRVTISRDNSKNTLYLQMNSLRAEDTAVYYCARSLARTTAMDYWGEGTLVTVSSASTKGPSVFPLAPSSKSTSGGTAALGCLVKDYFPEPVTVSWNSGALTSGVHTFPAVLQSSGLYSLSSVVTVPSSSLGTQTYICNVNHKPSNTKVDKKVEPKSCDKTHTCPPCPAPDYLGDDSVFLFPPKPKDTLMISRTPEVTCVVVDVSHEDPEVKFNWYVDGVEVHNAKTKPREEQDNSTYRVVSVLTVLHQDWLNGKEYKCKVSNAALPKPIEKTISKAKGQPREPQVYTLPPSRDELTKNQVSLTCLVKGFYPSDIAVEWESNGQPENNYKTTPPVLDSDGSFFLYSKLTVDKSRWQQGNVFSCSVMHEALHNHYTQESLSLSP
light: DIQMTQSPSSLSASVGDRVTITCRASQDISSYLNWYQQKPGKAPKLLIYYTSRLHSGVPSRFSGSGSGTDFTFTISSLQPEDIATYYCQQGNTLPYTFGQGTKVEIK
B2: IL6R-BP177/IL6R-L (antibody, human IgG1)
heavy: B1 heavy with P273G, D298Y, A328D
light: B1 light
B3: IL6R-BP180/IL6R-L (antibody, human IgG1)
heavy: B1 heavy with D235E, Y236L, P273G, D298Y, A328K
light: B1 light
B4: IL6R-BP183/IL6R-L (antibody, human IgG1)
heavy: B1 heavy with D239G, P273G, D298Y
light: B1 light
B5: IL6R-G1d/IL6R-L (antibody, human IgG1)
heavy: not shown
light: B1 light
notes: also called IgG1
B6: IL6R-BP186/IL6R-L (antibody, human IgG1)
heavy: B1 heavy with P273G
light: B1 light
B7: IL6R-BP185/IL6R-L (antibody, human IgG1)
heavy: B1 heavy with P273G, D298Y
light: B1 light
B8: IL6R-BP184/IL6R-L (antibody, human IgG1)
heavy: B1 heavy with Y236L, D239G, P273G, D298Y, A328K
light: B1 light
B9: IL6R-BP150/IL6R-L (antibody, human IgG1)
heavy: B1 heavy with D235E, D298Y, K332R
light: B1 light
B10: IL6R-BP179/IL6R-L (antibody, human IgG1)
heavy: B1 heavy with D235E, Y236L, P273G, D298Y
light: B1 light
B11: IL6R-BP204/IL6R-L (antibody, human IgG1)
heavy: B1 heavy with Y236L, D239G, P273G, D298Y, K332R
light: B1 light
notes: The common L chain is IL6R-L; copies: 2 + 2
B12: IL6R-BP201/IL6R-L (antibody, human IgG1)
heavy: B1 heavy with Y236L, P273G, D298Y, A328K, K332R
light: B1 light
notes: as for B11
B13: IL6R-BP200/IL6R-L (antibody)
heavy: B1 heavy with P273G, D298Y, A328D, K332R
light: B1 light
notes: copies: 2 + 2
B14: IL6R-BP202/IL6R-L (antibody, human IgG1)
heavy: B1 heavy with D235E, Y236L, P273G, D298Y, K332R
light: B1 light
notes: as for B11
B15: IL6R-BP193/IL6R-L (antibody, human IgG1)
heavy: B1 heavy with Y236L, D239G, H270D, P273G, D298Y, A328K
light: B1 light
notes: as for B11
B16: IL6R-BP188/IL6R-L (antibody, human IgG1)
heavy: B1 heavy with Y236L, H270D, P273G, D298Y, A328K
light: B1 light
notes: as for B11

Where a chain is given by its changes, count along the chain named.

T7 sequence (P08637 other isoform, or with tags, fused parts or gaps limits assumed): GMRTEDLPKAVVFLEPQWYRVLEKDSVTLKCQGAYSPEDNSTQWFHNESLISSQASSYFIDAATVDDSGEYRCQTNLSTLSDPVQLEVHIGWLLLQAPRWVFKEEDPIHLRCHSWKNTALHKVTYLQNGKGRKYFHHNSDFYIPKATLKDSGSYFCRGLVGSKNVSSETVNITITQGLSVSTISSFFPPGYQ

For one assay, the target named is T6, human FcγRIa (human, UniProt P12314 16-292, limits assumed).
T6 construct: also called FcgRIa; CD64
Briefly: SPR (Biacore), FcγR over captured antibody; binding amount / that of IL6R-BF648/IL6R-L x100. A general note: Surface plasmon resonance follows binding to a sensor surface in real time, without labels.
T6 sequence (P12314 16-292 limits assumed): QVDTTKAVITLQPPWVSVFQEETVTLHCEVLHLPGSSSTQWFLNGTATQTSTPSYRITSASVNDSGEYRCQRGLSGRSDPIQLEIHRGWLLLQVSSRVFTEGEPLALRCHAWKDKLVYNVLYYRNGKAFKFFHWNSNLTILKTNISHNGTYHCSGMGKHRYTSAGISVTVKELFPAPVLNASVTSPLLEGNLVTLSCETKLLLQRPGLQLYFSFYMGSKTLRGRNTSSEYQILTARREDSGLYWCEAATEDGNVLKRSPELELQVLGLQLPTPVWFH
Method: (§1) According to the following method, relative binding activities were calculated for the results of analyzing interactions with the respective FcγRs.
With B1, the relative binding activity was 29 % of IL6R-BF648/IL6R-L.
Same read-out and setting: for B2 the value was 57 % of IL6R-BF648/IL6R-L; for B3, 29 % of IL6R-BF648/IL6R-L.
The same measure, in the same setting: the same measure for B4: 83 % of IL6R-BF648/IL6R-L; for B5: 140 % of IL6R-BF648/IL6R-L.
On the same count and under the same terms, for B6 the value was 43 % of IL6R-BF648/IL6R-L.
As to B7, the relative binding activity is 47 % of IL6R-BF648/IL6R-L.
On the same count and under the same terms, for B8 the value was 96 % of IL6R-BF648/IL6R-L.
The same measure, in the same setting: the same measure for B9: 30 % of IL6R-BF648/IL6R-L; for B10: 39 % of IL6R-BF648/IL6R-L.

Another assay has as its target T7, human FcγRIIIa type V (human, UniProt P08637 17-208, limits assumed).
T7 construct: Allotype V158 was used; also called FcgRIIIaV; FcγRIIIa(V)
Described as above.
Method: as §1
As to B1, the relative binding activity was 186 % of IL6R-BF648/IL6R-L.
In the case of B2, the relative binding activity is 186 % of IL6R-BF648/IL6R-L.
The same measure, in the same setting: the same measure for B3: 100 % of IL6R-BF648/IL6R-L.
On to B4, for which the relative binding activity was 113 % of IL6R-BF648/IL6R-L.
Still for that read-out and setting: for B5 the value was 3350 % of IL6R-BF648/IL6R-L.
The same measure, in the same setting: the same measure for B6: 143 % of IL6R-BF648/IL6R-L; for B7: 191 % of IL6R-BF648/IL6R-L.
The same measure, in the same setting: the same measure for B8: 106 % of IL6R-BF648/IL6R-L; for B9: 204 % of IL6R-BF648/IL6R-L.
Regarding B10, the relative binding activity was 125 % of IL6R-BF648/IL6R-L.

For another assay, the target named is T1, human FcγRIIa type R. The description is as above.
Method: as §1
With B1, the relative binding activity was 539 % of IL6R-BF648/IL6R-L.
Still for that read-out and setting: the same measure for B2: 691 % of IL6R-BF648/IL6R-L; for B3: 602 % of IL6R-BF648/IL6R-L; for B4: 423 % of IL6R-BF648/IL6R-L.
B5: the relative binding activity is 650 % of IL6R-BF648/IL6R-L.
B6: the relative binding activity was 614 % of IL6R-BF648/IL6R-L.
In the case of B7, the relative binding activity was 670 % of IL6R-BF648/IL6R-L.
Take B8: the relative binding activity is 436 % of IL6R-BF648/IL6R-L.
Still for that read-out and setting: the same measure for B9: 757 % of IL6R-BF648/IL6R-L.
Still for that read-out and setting: the same measure for B10: 570 % of IL6R-BF648/IL6R-L.

Another assay concerns the target T2, human FcγRIIb. The assay is described as above.
Method: as §1
Consider B1, for which the relative binding activity was 173 % of IL6R-BF648/IL6R-L.
The same measure, in the same setting: the same measure for B2: 177 % of IL6R-BF648/IL6R-L.
B3: the relative binding activity is 179 % of IL6R-BF648/IL6R-L.
As for B4, the relative binding activity was 164 % of IL6R-BF648/IL6R-L.
Same read-out and setting: the same measure for B5: 62 % of IL6R-BF648/IL6R-L; for B6: 175 % of IL6R-BF648/IL6R-L; for B7: 179 % of IL6R-BF648/IL6R-L.
Same read-out and setting: the same measure for B8: 171 % of IL6R-BF648/IL6R-L; for B9: 183 % of IL6R-BF648/IL6R-L.
Consider B10, for which the relative binding activity is 177 % of IL6R-BF648/IL6R-L.

The target of another assay is T3, human FcγRIIa type H. The description is as above.
Method: as §1
For the molecule B1, the relative binding activity was 401 % of IL6R-BF648/IL6R-L.
On the same count and under the same terms, for B2 the value was 409 % of IL6R-BF648/IL6R-L; for B3, 203 % of IL6R-BF648/IL6R-L.
With B4, the relative binding activity was 191 % of IL6R-BF648/IL6R-L.
Same read-out and setting: the same measure for B5: 1670 % of IL6R-BF648/IL6R-L.
With B6, the relative binding activity is 368 % of IL6R-BF648/IL6R-L.
The same measure, in the same setting: the same measure for B7: 446 % of IL6R-BF648/IL6R-L.
Same read-out and setting: the same measure for B8: 131 % of IL6R-BF648/IL6R-L; for B9: 770 % of IL6R-BF648/IL6R-L.
The same measure, in the same setting: the same measure for B10: 226 % of IL6R-BF648/IL6R-L.

Another assay addresses T4, human FcγRIIa type H. Briefly: SPR (Biacore); binding amount divided by that of control IL6R-BF648/IL6R-L, x100.
Method: as §1
Consider B11, for which the relative binding activity is 137 % of IL6R-BF648/IL6R-L.
The same measure, in the same setting: for B12 the value was 359 % of IL6R-BF648/IL6R-L.
On the same count and under the same terms, for B13 the value was 517 % of IL6R-BF648/IL6R-L; for B14, 285 % of IL6R-BF648/IL6R-L.
B15: the relative binding activity is 154 % of IL6R-BF648/IL6R-L.

Another assay has as its target T8, human FcγRIa (human, UniProt P12314 16-292, limits assumed).
T8 construct: also called FcgRIa; CD64
Described as above.
T8 sequence (P12314 16-292 limits assumed): as above
Method: as §1
For the molecule B11, the relative binding activity was 110 % of IL6R-BF648/IL6R-L.
In the case of B12, the relative binding activity is 57 % of IL6R-BF648/IL6R-L.
For the molecule B13, the relative binding activity is 60 % of IL6R-BF648/IL6R-L.
B14: the relative binding activity was 43 % of IL6R-BF648/IL6R-L.
Same read-out and setting: the same measure for B15: 113 % of IL6R-BF648/IL6R-L; for B16: 74 % of IL6R-BF648/IL6R-L.

The target of a further assay is T5, human FcγRIIb. The description is as above.
Method: as §1
Regarding B11, the relative binding activity was 165 % of IL6R-BF648/IL6R-L.
Still for that read-out and setting: the same measure for B12: 186 % of IL6R-BF648/IL6R-L; for B13: 188 % of IL6R-BF648/IL6R-L; for B14: 185 % of IL6R-BF648/IL6R-L.
In the case of B15, the relative binding activity is 173 % of IL6R-BF648/IL6R-L.
Same read-out and setting: the same measure for B16: 179 % of IL6R-BF648/IL6R-L.
